Measured values reported in patent US11155602B2, “Polypeptides targeting HIV fusion” (priority 2015, dated 2021).
Residue numbers refer to the chain shown, from its start.

B1: 134 (protein)
chain: MGHHHHHHGGSVSDVPRDLEVVAATPTSLLISWDAPAVTVEQYYIAYYDEKEPSSYQYFRVPGSKSTATISGLKPGVEYAIFVNAVTRSGVLPEFSLPISINYRTEGS
modifications: Adnectin
B2: 136 (protein)
chain: B1 chain with A46G, D49V, K51A, R60F, E78D, R88A, V91R, L92G, F95Y
modifications: Adnectin
B3: 321 (protein)
chain: MGHHHHHHGGSVSDVPRDLEVVAATPTSLLISWEYKVHPYRYYRITYGETGGNSPVQEFTVPSVLSSAXLSGLKPGVDYTITVYAVTYGDDSAPISINYRTEID
modifications: not fully specified
B4: 302 (protein)
chain: MGHHHHHHGGSVSDVPRDLEVVAATPTSLLISWEYKVHPYRYYRITYGETGGNSPVQEFTVPSVLSSATINGLKPGVDYTITVYAVTYGDDSAPISINYRTEID
modifications: Adnectin
B5: 311 (protein)
chain: B4 chain with S67T, T69E, N71S
modifications: Adnectin
B6: 350 (protein)
chain: B4 chain with E58T, S67T, N71S
modifications: Adnectin
B7: 319 (protein)
chain: B4 chain with H38S, P39H, Y40G, S67T, N71S
modifications: Adnectin
B8: 317 (protein)
chain: B4 chain with H38N, P39A, S67T, N71S
modifications: Adnectin
B9: 304 (protein)
chain: B4 chain with H38A, P39H, Y40D, S67T, N71S
modifications: Adnectin
B10: 325 (protein)
chain: B4 chain with H38N, P39H, Y40D, S67T, N71S
modifications: Adnectin
B11: 133 (protein)
chain: B4 chain with P39Y, Y40D, S67T, N71S, D90V, A93D
modifications: Adnectin
B12: 305 (protein)
chain: B4 chain with H38D, S67T, N71S
modifications: Adnectin
B13: 324 (protein)
chain: B4 chain with S67T, N71S, A93N
modifications: Adnectin
B14: 312 (protein)
chain: B4 chain with T60L, S67T, N71S
modifications: Adnectin
B15: 135 (protein)
chain: B4 chain with E34K, K36N, H38N, P39A, S67T, N71S, D90V, D91H, A93S
modifications: Adnectin
B16: 326 (protein)
chain: B4 chain with H38S, P39H, Y40R, S67T, N71S
modifications: Adnectin
B17: 313 (protein)
chain: B4 chain with H38A, P39H, Y40G, S67T, N71S
modifications: Adnectin
B18: 346 (protein)
chain: B4 chain with S67T, N71S, N98Q
modifications: Adnectin
B19: 310 (protein)
chain: B4 chain with S67T
modifications: Adnectin
B20: 330 (protein)
chain: B4 chain with S67T, N71S, A93P
modifications: Adnectin
B21: 345 (protein)
chain: B4 chain with S67T, N71S, A93R
modifications: Adnectin
B22: 344 (protein)
chain: B4 chain with S67T, N71S, A93E
modifications: Adnectin
B23: 314 (protein)
chain: B4 chain with H38A, P39Y, Y40K, S67T, N71S
modifications: Adnectin
B24: 316 (protein)
chain: B4 chain with K36A, S67T, N71S
modifications: Adnectin
B25: 322 (protein)
chain: B4 chain with S67T, N71S, D90T
modifications: Adnectin
B26: 337 (protein)
chain: B4 chain with S67T, N71S, A93Y
modifications: Adnectin
B27: 307 (protein)
chain: B4 chain with S28G, S67T, N71S
modifications: Adnectin
B28: 348 (protein)
chain: B4 chain with H38S, P39T, Y40W, S67T, N71S
modifications: Adnectin
B29: 338 (protein)
chain: B4 chain with H38N, P39R, S67T, N71S
modifications: Adnectin
B30: 327 (protein)
chain: B4 chain with H38T, P39Y, Y40E, S67T, N71S
modifications: Adnectin
B31: 323 (protein)
chain: B4 chain with S67T, N71S, D91Q
modifications: Adnectin
B32: 347 (protein)
chain: B4 chain with H38N, P39Y, Y40R, S67T, N71S
modifications: Adnectin
B33: 318 (protein)
chain: B4 chain with H38N, P39G, S67T, N71S
modifications: Adnectin
B34: 349 (protein)
chain: B4 chain with H38Y, P39A, S67T, N71S
modifications: Adnectin
B35: 343 (protein)
chain: B4 chain with S67T, N71S, D91H
modifications: Adnectin
B36: 334 (protein)
chain: B4 chain with H38T, P39Y, Y40R, S67T, N71S
modifications: Adnectin
B37: 332 (protein)
chain: B4 chain with H38N, P39R, Y40W, S67T, N71S
modifications: Adnectin
B38: 308 (protein)
chain: B4 chain with H38N, P39A, Y40W, S67T, N71S
modifications: Adnectin
B39: 341 (protein)
chain: B4 chain with E58S, S67T, N71S
modifications: Adnectin
B40: 303 (protein)
chain: B4 chain with T60K, S67T, N71S
modifications: Adnectin
B41: 342 (protein)
chain: B4 chain with S67T, N71S, D90I
modifications: Adnectin
B42: 315 (protein)
chain: B4 chain with H38D, P39R, Y40W, S67T, N71S
modifications: Adnectin
B43: 320 (protein)
chain: B4 chain with H38T, P39T, Y40W, S67T, N71S
modifications: Adnectin
B44: 306 (protein)
chain: B4 chain with H38D, P39Y, Y40R, S67T, N71S
modifications: Adnectin
B45: 333 (protein)
chain: B4 chain with H38S, Y40W, S67T, N71S
modifications: Adnectin
B46: 336 (protein)
chain: B4 chain with S67T, N71S, A93D
modifications: Adnectin
B47: 335 (protein)
chain: B4 chain with S67T, N71S, D91E
modifications: Adnectin
B48: 329 (protein)
chain: B4 chain with S67T, N71S, D91V
modifications: Adnectin
B49: 309 (protein)
chain: B4 chain with S67T, N71S, Y88H
modifications: Adnectin
B50: 351 (protein)
chain: B4 chain with E58A, S67T, N71S, D90K
modifications: Adnectin
B51: 339 (protein)
chain: B4 chain with H38S, P39R, Y40W, S67T, N71S
modifications: Adnectin
B52: 137 (protein)
chain: MGVSDVPRDLEVVAATPTSLLISWHDGIGEERYYRITYGETGGNSPVQEFTVPMDDITATISGLKPGVDYTITVYAVTVGDVISVLHEPISINYRTEIDKPSQHHHHHH
modifications: Adnectin

What follows are molecules tested on NL-Rluc virus (assay: Combinectin potency assay: antiviral EC50, NL-Rluc virus in MT-2 cells, luciferase readout). Settings: Anti-N17 Adnectin, Table 3.
Type: cell-based, HIV-1
Summary of the method: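 MT-2 cells infected with replication-competent NL-Rluc HIV (nef replaced by Renilla luciferase) at MOI 0.01 for 1 h, then added to threefold-diluted peptides (11 concentrations, triplicate). After 4–5 days, luciferase measured by Dual Luciferase; EC50 relative to no-peptide wells.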

| Molecule | EC50 [nM] |
| --- | --- |
| B1 | 5 |
| B2 | 5 |
| B3 | 55 |
| B4 | 4 |
| B5 | 42 |
| B6 | 191 |
| B7 | > 1000 |
| B8 | > 1000 |
| B9 | > 1000 |
| B10 | > 1000 |
| B11 | 42 |
| B12 | 83 |
| B13 | 487 |
| B14 | 37 |
| B15 | > 1000 |
| B16 | > 1000 |
| B17 | > 1000 |
| B18 | 83 |
| B19 | 62 |
| B20 | 99 |
| B21 | > 1000 |
| B22 | > 1000 |
| B23 | > 1000 |
| B24 | 331 |
| B25 | 96 |
| B26 | > 1000 |

| Molecule | EC50 [nM] |
| --- | --- |
| B27 | 205 |
| B28 | > 1000 |
| B29 | > 1000 |
| B30 | > 1000 |
| B31 | 126 |
| B32 | > 1000 |
| B33 | > 1000 |
| B34 | > 1000 |
| B35 | 122 |
| B36 | > 1000 |
| B37 | > 1000 |
| B38 | > 1000 |
| B39 | > 1000 |
| B40 | 109 |
| B41 | > 1000 |
| B42 | > 1000 |
| B43 | > 1000 |
| B44 | > 1000 |
| B45 | > 1000 |
| B46 | 171 |
| B47 | 112 |
| B48 | 102 |
| B49 | > 1000 |
| B50 | 215 |
| B51 | > 1000 |
| B52 | 80 |
